Source: patent US11673916B2, “Neuroprotective peptides and methods of their use” (University of Pittsburgh—Of the Commonwealth System of …, priority 2020, dated 2023)

Target: T1, Kv2.1-VAPA association (Rattus norvegicus, UniProt P15387+Q9Z270)
T1 construct: endogenous in cells; host or cells: primary rat cortical neurons (untransfected, fixed and immunolabelled)
T1 sequence (P15387 1-857): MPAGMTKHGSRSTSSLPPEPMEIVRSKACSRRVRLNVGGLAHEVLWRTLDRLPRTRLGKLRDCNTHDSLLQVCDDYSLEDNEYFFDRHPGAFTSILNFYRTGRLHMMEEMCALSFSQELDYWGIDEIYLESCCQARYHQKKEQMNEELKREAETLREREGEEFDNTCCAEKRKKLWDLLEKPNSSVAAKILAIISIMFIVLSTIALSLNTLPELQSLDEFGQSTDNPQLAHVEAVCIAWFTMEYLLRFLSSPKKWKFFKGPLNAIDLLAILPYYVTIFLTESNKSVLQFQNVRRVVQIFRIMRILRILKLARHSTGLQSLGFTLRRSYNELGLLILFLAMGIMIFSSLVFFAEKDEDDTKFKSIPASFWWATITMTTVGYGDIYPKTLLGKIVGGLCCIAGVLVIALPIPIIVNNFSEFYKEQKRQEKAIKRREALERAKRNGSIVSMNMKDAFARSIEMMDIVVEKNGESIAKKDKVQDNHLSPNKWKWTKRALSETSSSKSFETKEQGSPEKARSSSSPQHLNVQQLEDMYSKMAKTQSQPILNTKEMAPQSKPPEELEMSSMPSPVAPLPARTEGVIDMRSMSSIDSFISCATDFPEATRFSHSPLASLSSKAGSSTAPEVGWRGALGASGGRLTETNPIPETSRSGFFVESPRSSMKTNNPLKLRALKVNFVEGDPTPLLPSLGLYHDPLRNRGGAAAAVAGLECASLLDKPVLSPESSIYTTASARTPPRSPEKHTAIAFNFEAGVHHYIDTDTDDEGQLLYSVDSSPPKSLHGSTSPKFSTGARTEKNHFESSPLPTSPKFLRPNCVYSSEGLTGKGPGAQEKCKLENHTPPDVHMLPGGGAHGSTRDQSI
T1 sequence (Q9Z270 2-249 limits assumed): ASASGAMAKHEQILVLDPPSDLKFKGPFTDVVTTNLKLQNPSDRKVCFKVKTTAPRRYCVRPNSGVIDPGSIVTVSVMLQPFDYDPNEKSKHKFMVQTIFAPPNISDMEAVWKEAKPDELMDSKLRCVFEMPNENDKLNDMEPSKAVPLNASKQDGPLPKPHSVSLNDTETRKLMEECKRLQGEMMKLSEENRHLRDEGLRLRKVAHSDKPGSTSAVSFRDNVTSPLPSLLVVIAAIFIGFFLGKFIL
Assay: Proximity ligation assay (PLA) of Kv2.1-VAPA association in cortical neurons
Type: cell-based
Settings: 10 μM peptide, 2-hour treatment, means+/-SEM (FIG. 3C)
Protocol: Duolink proximity ligation assay (PLA) technology (Sigma-Aldrich, St. Louis, Mo.) was utilized to assess in situ protein-protein interaction between Kv2.1 and vesicle-associated […] protein (VAMP)-associated protein A (VAPA). Primary cortical neurons on glass coverslips were treated in 24-well plates with vehicle (dH2O), TAT-Sc-2 (10 μM), or TAT-DP-2 (10 μM) for 2 hours at 37° C./5% CO2. Neurons were then rinsed with 2 mL ice-cold sterile PBS and then transferred to 1 mL 4% paraformaldehyde (PFA) in PBS for 20 minutes to fix. Coverslips were transferred to 1 mL 0.1 M glycine (in PBS) to quench fixation and rinsed three times in 1 mL PBS. […]
PLA puncta were imaged on a Nikon A1+ confocal microscope (Nikon, Tokyo, Japan) with a 60× objective. […] PLA puncta signals were then obtained by capturing 25 optical sections (0.5 μm) that constrained the entire Z-width of PLA-TRITC fluorescence as MAX-IP files. […] NIS-Elements AR object count feature was then utilized to analyze the quantity of PLA puncta per cell. […] As distinct local PLA puncta-TRITC auto-fluorescence (markedly different in appearance from PLA puncta) was noted, local background subtraction using a small ROI within this region was performed in a protocol similar to that described earlier (Glynn, et al., Nat Protoc. 1: 1287-1296, 2006). […]

| Sequence | PLA puncta per square micron of neuronal soma |
| --- | --- |
| YGRKKRRQRRRDFSSIST [TAT-Sc-2, TAT-linked scramble control peptide] | 0.10+/−0.06 #PLA puncta/sq. micron of cell soma |
| YGRKKRRQRRRSIDSFTS [TAT-DP-2, TAT-linked declustering peptide 2] | 0.06+/−0.01 #PLA puncta/sq. micron of cell soma |
